Tested on: Escherichia coli TOP10
Assay: shrunken log2 fold change of peptide-encoding DNA abundance (4.5 h post-induction vs induction); higher = less antimicrobial activity (less host growth inhibition)
Conditions: time post-induction: 4.5 h; library: site-saturation at positions 5, 18, 19, 20
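Note: peptides expressed intracellularly from a pBAD plasmid library in pooled LB shake-flask culture, induced with 0.3% L-arabinose, DNA abundance read by NGS, three biological replicates, DESeq2 with apeglm shrinkage.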

Compared with RRIRVRPPRLPRPRPRPDSAPRP, RRIRVRPPRLPRPRPRPDSLPRP is lower in “shrunken log2 fold change” value: 0.0792 for the first, -0.416 for the second.

RRIRVRPPRLPRPRPRPDSSPRP and RRIRVRPPRLPRPRPRPDTHPRP are within 0.2 log units of each other in “shrunken log2 fold change” value: -0.0452 for the first, -0.214 for the second.

RRIRVRPPRLPRPRPRPDTRPRP and RRIRVRPPRLPRPRPRPDVMPRP are within 0.2 log units of each other in “shrunken log2 fold change” value: -0.129 for the first, -0.00879 for the second.

RRIRVRPPRLPRPRPRPECKPRP and RRIRVRPPRLPRPRPRPEELPRP are within 0.2 log units of each other in “shrunken log2 fold change” value: 0.0339 for the first, -0.0522 for the second.

First: RRIRVRPPRLPRPRPRPEFQPRP
Second: RRIRVRPPRLPRPRPRPEFRPRP
The “shrunken log2 fold change” value of the first is lower: -0.0311 for the first, 0.463 for the second.

RRIRVRPPRLPRPRPRPEHHPRP and RRIRVRPPRLPRPRPRPEHNPRP are within 0.2 log units of each other in “shrunken log2 fold change” value: -0.334 for the first, -0.244 for the second.

RRIRVRPPRLPRPRPRPEKAPRP and RRIRVRPPRLPRPRPRPEKKPRP are within 0.2 log units of each other in “shrunken log2 fold change” value: -0.114 for the first, -0.0337 for the second.

Compared with RRIRVRPPRLPRPRPRPEKRPRP, RRIRVRPPRLPRPRPRPELDPRP is higher in “shrunken log2 fold change” value: -0.218 for the first, 0.183 for the second.

Compared with RRIRVRPPRLPRPRPRPEPEPRP, RRIRVRPPRLPRPRPRPEQGPRP is lower in “shrunken log2 fold change” value: 0.515 for the first, 0.0379 for the second.

First: RRIRVRPPRLPRPRPRPEREPRP
Second: RRIRVRPPRLPRPRPRPERRPRP
The “shrunken log2 fold change” value of the first is higher: 0.586 for the first, 0.13 for the second.

Compared with RRIRVRPPRLPRPRPRPESWPRP, RRIRVRPPRLPRPRPRPETHPRP is lower in “shrunken log2 fold change” value: 0.28 for the first, -0.0797 for the second.

Going from RRIRVRPPRLPRPRPRPETTPRP to RRIRVRPPRLPRPRPRPETYPRP, the “shrunken log2 fold change” value falls from 0.348 to -0.316.

First: RRIRVRPPRLPRPRPRPEVAPRP
Second: RRIRVRPPRLPRPRPRPEVFPRP
The “shrunken log2 fold change” value of the first is higher: 1.82 for the first, 0.0748 for the second.

RRIRVRPPRLPRPRPRPEVRPRP and RRIRVRPPRLPRPRPRPEVYPRP are within 0.2 log units of each other in “shrunken log2 fold change” value: 0.0429 for the first, -0.0457 for the second.

RRIRVRPPRLPRPRPRPEWIPRP and RRIRVRPPRLPRPRPRPEYSPRP are within 0.2 log units of each other in “shrunken log2 fold change” value: -0.0835 for the first, -0.273 for the second.

Compared with RRIRVRPPRLPRPRPRPFDMPRP, RRIRVRPPRLPRPRPRPFDTPRP is lower in “shrunken log2 fold change” value: -0.16 for the first, -0.847 for the second.

First: RRIRVRPPRLPRPRPRPFFWPRP
Second: RRIRVRPPRLPRPRPRPFGQPRP
The “shrunken log2 fold change” value of the first is higher: 0.395 for the first, -0.222 for the second.

Compared with RRIRVRPPRLPRPRPRPFGVPRP, RRIRVRPPRLPRPRPRPFIAPRP is lower in “shrunken log2 fold change” value: -0.179 for the first, -0.448 for the second.

First: RRIRVRPPRLPRPRPRPFITPRP
Second: RRIRVRPPRLPRPRPRPFKFPRP
The “shrunken log2 fold change” value of the first is lower: -0.334 for the first, -0.0599 for the second.

RRIRVRPPRLPRPRPRPFKYPRP and RRIRVRPPRLPRPRPRPFLEPRP are within 0.2 log units of each other in “shrunken log2 fold change” value: -0.0213 for the first, 0.0733 for the second.

Compared with RRIRVRPPRLPRPRPRPFLLPRP, RRIRVRPPRLPRPRPRPFLPPRP is higher in “shrunken log2 fold change” value: -0.769 for the first, -0.198 for the second.

RRIRVRPPRLPRPRPRPFMLPRP and RRIRVRPPRLPRPRPRPFMWPRP are within 0.2 log units of each other in “shrunken log2 fold change” value: -0.279 for the first, -0.327 for the second.

Going from RRIRVRPPRLPRPRPRPFPFPRP to RRIRVRPPRLPRPRPRPFPNPRP, the “shrunken log2 fold change” value rises from -0.199 to 0.038.

First: RRIRVRPPRLPRPRPRPFQVPRP
Second: RRIRVRPPRLPRPRPRPFQYPRP
The “shrunken log2 fold change” value of the first is higher: -0.0887 for the first, -0.453 for the second.

RRIRVRPPRLPRPRPRPFSLPRP and RRIRVRPPRLPRPRPRPFTEPRP are within 0.2 log units of each other in “shrunken log2 fold change” value: -0.348 for the first, -0.423 for the second.

First: RRIRVRPPRLPRPRPRPFVLPRP
Second: RRIRVRPPRLPRPRPRPFVMPRP
The “shrunken log2 fold change” value of the first is lower: -0.322 for the first, 0.0296 for the second.

Going from RRIRVRPPRLPRPRPRPFWLPRP to RRIRVRPPRLPRPRPRPFWNPRP, the “shrunken log2 fold change” value falls from 0.234 to -0.00518.

RRIRVRPPRLPRPRPRPGAIPRP and RRIRVRPPRLPRPRPRPGAYPRP are within 0.2 log units of each other in “shrunken log2 fold change” value: 0.0707 for the first, -0.0376 for the second.

Going from RRIRVRPPRLPRPRPRPGCYPRP to RRIRVRPPRLPRPRPRPGDEPRP, the “shrunken log2 fold change” value rises from -0.112 to 0.122.

First: RRIRVRPPRLPRPRPRPGDHPRP
Second: RRIRVRPPRLPRPRPRPGDIPRP
The “shrunken log2 fold change” value of the first is higher: -0.0257 for the first, -0.264 for the second.

RRIRVRPPRLPRPRPRPGEAPRP and RRIRVRPPRLPRPRPRPGEMPRP are within 0.2 log units of each other in “shrunken log2 fold change” value: 0.474 for the first, 0.329 for the second.

RRIRVRPPRLPRPRPRPGGFPRP and RRIRVRPPRLPRPRPRPGHAPRP are within 0.2 log units of each other in “shrunken log2 fold change” value: 0.211 for the first, 0.245 for the second.

Going from RRIRVRPPRLPRPRPRPGIEPRP to RRIRVRPPRLPRPRPRPGIYPRP, the “shrunken log2 fold change” value falls from -0.28 to -0.623.

Going from RRIRVRPPRLPRPRPRPGKCPRP to RRIRVRPPRLPRPRPRPGKFPRP, the “shrunken log2 fold change” value falls from 0.0804 to -0.17.

RRIRVRPPRLPRPRPRPGNLPRP and RRIRVRPPRLPRPRPRPGNWPRP are within 0.2 log units of each other in “shrunken log2 fold change” value: -0.101 for the first, 0.0971 for the second.

Going from RRIRVRPPRLPRPRPRPGPIPRP to RRIRVRPPRLPRPRPRPGTNPRP, the “shrunken log2 fold change” value falls from 0.0476 to -0.254.

First: RRIRVRPPRLPRPRPRPGVRPRP
Second: RRIRVRPPRLPRPRPRPGVYPRP
The “shrunken log2 fold change” value of the first is higher: 0.188 for the first, -0.0713 for the second.

RRIRVRPPRLPRPRPRPGWEPRP and RRIRVRPPRLPRPRPRPGWVPRP are within 0.2 log units of each other in “shrunken log2 fold change” value: 0.123 for the first, 0.0954 for the second.

First: RRIRVRPPRLPRPRPRPGYSPRP
Second: RRIRVRPPRLPRPRPRPHADPRP
The “shrunken log2 fold change” value of the first is lower: -0.553 for the first, 0.00219 for the second.

RRIRVRPPRLPRPRPRPHDDPRP and RRIRVRPPRLPRPRPRPHDMPRP are within 0.2 log units of each other in “shrunken log2 fold change” value: -0.162 for the first, -0.0267 for the second.

First: RRIRVRPPRLPRPRPRPHEYPRP
Second: RRIRVRPPRLPRPRPRPHFCPRP
The “shrunken log2 fold change” value of the first is lower: -0.419 for the first, -0.0628 for the second.

First: RRIRVRPPRLPRPRPRPHGCPRP
Second: RRIRVRPPRLPRPRPRPHHEPRP
The “shrunken log2 fold change” value of the first is higher: -0.041 for the first, -0.582 for the second.

RRIRVRPPRLPRPRPRPHLEPRP and RRIRVRPPRLPRPRPRPHLSPRP are within 0.2 log units of each other in “shrunken log2 fold change” value: -0.133 for the first, -0.301 for the second.

Compared with RRIRVRPPRLPRPRPRPHLYPRP, RRIRVRPPRLPRPRPRPHMVPRP is lower in “shrunken log2 fold change” value: -0.309 for the first, -0.53 for the second.

First: RRIRVRPPRLPRPRPRPHNCPRP
Second: RRIRVRPPRLPRPRPRPHNNPRP
The “shrunken log2 fold change” value of the first is higher: -0.0364 for the first, -0.652 for the second.

RRIRVRPPRLPRPRPRPHNSPRP and RRIRVRPPRLPRPRPRPHPGPRP are within 0.2 log units of each other in “shrunken log2 fold change” value: -0.23 for the first, -0.325 for the second.

RRIRVRPPRLPRPRPRPHRDPRP and RRIRVRPPRLPRPRPRPHRSPRP are within 0.2 log units of each other in “shrunken log2 fold change” value: -0.198 for the first, -0.164 for the second.

First: RRIRVRPPRLPRPRPRPHSEPRP
Second: RRIRVRPPRLPRPRPRPHSPPRP
The “shrunken log2 fold change” value of the first is lower: -0.392 for the first, -0.0205 for the second.

First: RRIRVRPPRLPRPRPRPHYGPRP
Second: RRIRVRPPRLPRPRPRPHYMPRP
The “shrunken log2 fold change” value of the first is higher: -0.0301 for the first, -1.03 for the second.

Going from RRIRVRPPRLPRPRPRPIAEPRP to RRIRVRPPRLPRPRPRPIAFPRP, the “shrunken log2 fold change” value falls from 0.127 to -0.207.

Going from RRIRVRPPRLPRPRPRPIAWPRP to RRIRVRPPRLPRPRPRPIDQPRP, the “shrunken log2 fold change” value falls from 0.468 to 0.216.

Going from RRIRVRPPRLPRPRPRPIENPRP to RRIRVRPPRLPRPRPRPIFEPRP, the “shrunken log2 fold change” value rises from -0.229 to 0.149.

RRIRVRPPRLPRPRPRPIFTPRP and RRIRVRPPRLPRPRPRPIFWPRP are within 0.2 log units of each other in “shrunken log2 fold change” value: -0.0783 for the first, 0.00106 for the second.

RRIRVRPPRLPRPRPRPIHLPRP and RRIRVRPPRLPRPRPRPIHSPRP are within 0.2 log units of each other in “shrunken log2 fold change” value: -0.197 for the first, -0.252 for the second.

In the case of RRIRVRPPRLPRPRPRPIIHPRP, the “shrunken log2 fold change” value was -0.809.

From the supplement of paper PMC9112550, “Optimization of the antimicrobial peptide Bac7 by deep mutational scanning” (BMC Biology, 2022)
